# Test results from patent publication US20260125457A1 (Janssen / Centocor, published 2026).
# T1: wild-type calreticulin (CALRwt) expressed with MPL in engineered cancer cells (UniProt P27797 18-417, limits assumed)
# T1 construct: whole, on cells; also called OCI-M2 MPL CALRwt
# T1 sequence (looked up): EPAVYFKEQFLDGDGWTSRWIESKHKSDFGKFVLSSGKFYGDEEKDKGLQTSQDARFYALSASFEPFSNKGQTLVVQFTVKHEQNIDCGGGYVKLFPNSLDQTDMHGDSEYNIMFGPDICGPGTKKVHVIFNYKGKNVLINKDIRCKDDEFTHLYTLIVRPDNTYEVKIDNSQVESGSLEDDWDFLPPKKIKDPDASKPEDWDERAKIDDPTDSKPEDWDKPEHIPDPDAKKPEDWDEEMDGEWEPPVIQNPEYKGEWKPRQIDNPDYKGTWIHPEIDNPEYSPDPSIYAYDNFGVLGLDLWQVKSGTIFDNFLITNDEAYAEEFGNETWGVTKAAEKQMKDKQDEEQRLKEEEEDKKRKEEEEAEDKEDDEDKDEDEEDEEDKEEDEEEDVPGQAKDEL
# T2: CALRdel52 (mutant calreticulin, 52 base pair deletion, Type 1) expressed with MPL on engineered cancer cells (UniProt P27797 18-417)
# T2 construct: whole, on cells; On the cell surface in complex with MPL; also called OCI-M2 MPL CALRdel52
# T2 sequence (looked up): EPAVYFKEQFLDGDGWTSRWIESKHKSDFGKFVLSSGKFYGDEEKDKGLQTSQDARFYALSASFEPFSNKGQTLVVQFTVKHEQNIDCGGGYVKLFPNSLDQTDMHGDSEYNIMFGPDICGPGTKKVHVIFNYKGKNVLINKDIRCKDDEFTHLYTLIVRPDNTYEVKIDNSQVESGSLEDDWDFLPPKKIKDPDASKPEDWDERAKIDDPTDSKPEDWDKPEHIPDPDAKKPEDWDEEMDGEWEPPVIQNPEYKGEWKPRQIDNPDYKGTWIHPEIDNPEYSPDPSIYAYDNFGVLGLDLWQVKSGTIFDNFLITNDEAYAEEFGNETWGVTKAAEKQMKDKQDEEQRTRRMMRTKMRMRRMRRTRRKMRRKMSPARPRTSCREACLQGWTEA
# T3: CALRins5 (mutant calreticulin, 5 base pair insertion, Type 2) expressed with MPL on engineered cancer cells (UniProt P27797 18-417)
# T3 construct: whole, on cells; On the cell surface in complex with MPL; also called OCI-M2 MPL CALRins5
# T3 sequence (looked up): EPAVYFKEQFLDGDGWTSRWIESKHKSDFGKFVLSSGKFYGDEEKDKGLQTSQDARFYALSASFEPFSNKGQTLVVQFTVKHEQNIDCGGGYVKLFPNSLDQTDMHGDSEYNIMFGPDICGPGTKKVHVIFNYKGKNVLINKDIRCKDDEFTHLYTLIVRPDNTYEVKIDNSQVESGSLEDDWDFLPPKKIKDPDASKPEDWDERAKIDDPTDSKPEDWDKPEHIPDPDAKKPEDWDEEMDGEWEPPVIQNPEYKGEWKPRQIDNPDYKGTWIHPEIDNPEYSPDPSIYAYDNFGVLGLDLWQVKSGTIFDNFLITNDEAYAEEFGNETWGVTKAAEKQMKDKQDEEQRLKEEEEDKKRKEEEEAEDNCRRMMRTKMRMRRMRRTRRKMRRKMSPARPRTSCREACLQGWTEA
# Legend:
# [1] = molecular target: HIS-CALRdel52 (produced in E. coli); assay: QC monoclonal phage ELISA, helper phage control
# [2] = molecular target: T1, wild-type calreticulin (CALRwt) …; assay: flow cytometry on ELF-153 MPL CALRwt cells, 1 h at 37 C, AF647 secondary antibody, Geometric Mean
# Experimental: (§1) FIGS. 21A-21F depict binding of different CALRmutxCD3 bispecific antibodies to CALRmut-negative or CALRmut-positive cells. Flow cytometry was used to evaluate CALRmutxCD3 binding to CALRmut-negative and CALRmut-positive cancer cells in vitro. CALRmutxCD3 antibodies were tested on a panel of cell lines, engineered to express MPL and CALRmut, after 1 hour 37° C. incubation, with subsequent incubation with secondary AF647-labeled antibody. Geometric mean fluorescence intensity of AF647 was measured to determine antibody binding.
# [3] = molecular target: T2, CALRdel52 (mutant calreticulin, 52 base …); assay: flow cytometry on OCI-M2 MPL CALRdel52 cells, 1 h at 37 C, AF647 secondary antibody, Geometric Mean
# Experimental: as §1
# [4] = molecular target: T4, CD3 on primary human pan T cells (human, UniProt P07766 23-207); assay: flow cytometry on pan CD3 T cells, 1 h at 37 C, AF647 secondary antibody, Geometric Mean
# T4 construct: whole, on cells; also called CD3e; CD3ε
# T4 sequence (P07766 23-207): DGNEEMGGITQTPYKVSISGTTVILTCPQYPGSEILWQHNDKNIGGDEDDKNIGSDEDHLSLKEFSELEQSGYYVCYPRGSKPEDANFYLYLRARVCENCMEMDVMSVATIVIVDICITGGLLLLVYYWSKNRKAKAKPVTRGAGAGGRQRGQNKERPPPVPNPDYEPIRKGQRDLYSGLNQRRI
# Experimental: FIG. 22 depicts binding of different CALRmutxCD3 bispecific antibodies to pan CD3 T cells. Flow cytometry was used to evaluate CALRmutxCD3 binding to pan CD3 T cells in vitro, by 1 hour 37° C. incubation, with subsequent incubation with secondary AF647-labeled antibody. Geometric mean fluorescence intensity of AF647 was measured to determine antibody binding.
# Flow cytometry was used to evaluate the CD3 arm binding of CALRmutxCD3 antibodies listed in Table 21 to CD3+ pan T cells from healthy human donor. CALRmutxCD3 were tested after 1 hour 37° C. incubation with pan T cells.
# [5] = molecular target: T3, CALRins5 (mutant calreticulin, 5 base …); assay: flow cytometry on ELF-153 MPL CALRins5 cells, 1 h at 37 C, AF647 secondary antibody, Geometric Mean
# Experimental: as §1
phage ELISA signal (Coating: CALR) [1],binding result [2],EC50 (read off the curve) [3] [nM],EC50 (read off the curve) [4] [nM],EC50 (read off the curve) [5] [nM],binding result [4],Molecule
0.225,–,–,–,–,–,M13KO7
–,no binding (tested: 100 nM),~4,~3,~3,–,"CALRB1508 CALRmut x CD3 bispecific antibody (bispecific antibody, human IgG1, kappa, L234A L235A, Chain A: CD3 spFv-Fc; Chain B: CALRB1114 Fab arm) scFv: DIQMTQSPSSLSASVGDRVTITCRARQSIGTAIHWYQQKPGCAPKLLIKYASESISGVPSRFSGSGSGTDFTLTISSLQPEDFATYYCQQSGSWPYTFGQGTKLEIKGGGSGGSGGCPPCGGSGGEVQLVESGGGLVKPGGSLRLSCAASGFTFSRYNMNWVRQAPGKGLEWVSSISTSSNYIYYADSVKGRFTFSRDNAKNSLDLQMSGLRAEDTAIYYCTRGWGPFDYWGCGTLVTVSSEPKSSDKTHTCPPCPAPEAAGGPSVFLFPPKPKDTLMISRTPEVTCVVVSVSHEDPEVKFNWYVDGVEVHNAKTKPREEQYNSTYRVVSVLTVLHQDWLNGKEYKCKVSNKALPAPIEKTISKAKGQPREPQVYTLPPSREEMTKNQVSLWCLVKGFYPSDIAVEWESNGQPENNYKTTPPVLDSDGSFFLYSKLTVDKSRWQQGNVFSCSVMHEALHNHYTQKSLSLSPGK heavy: QVQLVQSGAEVKKPGASVKVSCKASGFSLSSYAMSWVRQAPGQGLEWMGVIDSGGTTYYAQKFQGRVTMTRDTSTSTVYMELSSLRSEDTAVYYCARESYAGYDYYGHPIPYGMEPWGQGTLVTVSSASTKGPSVFPLAPSSKSTSGGTAALGCLVKDYFPEPVTVSWNSGALTSGVHTFPAVLQSSGLYSLSSVVTVPSSSLGTQTYICNVNHKPSNTKVDKKVEPKSCDKTHTCPPCPAPEAAGGPSVFLFPPKPKDTLMISRTPEVTCVVVSVSHEDPEVKFNWYVDGVEVHNAKTKPREEQYNSTYRVVSVLTVLHQDWLNGKEYKCKVSNKALPAPIEKTISKAKGQPREPQVYTLPPSREEMTKNQVSLSCAVKGFYPSDIAVEWESNGQPENNYKTTPPVLDSDGSFFLVSKLTVDKSRWQQGNVFSCSVMHEALHNRFTQKSLSLSPGK light: DIQMTQSPSTLSASVGDRVTITCQASQSLYNNKNLAWYQQKPGKAPKLLIYYASALASGVPSRFSGSGSGTEFTLTISSLQPDDFATYYCQGEFNCNSADCNSFGGGTKVEIKRTVAAPSVFIFPPSDEQLKSGTASVVCLLNNFYPREAKVQWKVDNALQSGNSQESVTEQDSKDSTYSLSSTLTLSKADYEKHKVYACEVTHQGLSSPVTKSFNRGEC"
–,no binding (tested: 100 nM),~2,–,~0.5,binds,"C3CRB75 CALRmut x CD3 bispecific antibody (bispecific antibody, human IgG1, kappa, L234A L235A, Chain A heavy: CALRB421 Fab heavy part, CD3 spFv, Fc; Chain B heavy: CALRB421; one light chain on each) heavy 1: EVQLLESGGGLVQPGGSLRLSCAVSGIDLSNNAISWVRQAPGKGLEYVGVIGNTGDTYYADSAKGRFTISRDSSKTTLYLQMNSLRAEDTAVYFCVRGPPSYSSSVKNIWGQGTLVTVSSASTKGPSVFPLAPSSKSTSGGTAALGCLVKDYFPEPVTVSWNSGALTSGVHTFPAVLQSSGLYSLSSVVTVPSSSLGTQTYICNVNHKPSNTKVDKKVEPKSCDGGGGSGGGGSDIQMTQSPSSLSASVGDRVTITCRARQSIGTAIHWYQQKPGCAPKLLIKYASESISGVPSRFSGSGSGTDFTLTISSLQPEDFATYYCQQSGSWPYTFGQGTKLEIKGGGSGGSGGCPPCGGSGGEVQLVESGGGLVKPGGSLRLSCAASGFTFSRYNMNWVRQAPGKGLEWVSSISTSSNYIYYADSVKGRFTFSRDNAKNSLDLQMSGLRAEDTAIYYCTRGWGPFDYWGCGTLVTVSSEPKSSDKTHTCPPCPAPEAAGGPSVFLFPPKPKDTLMISRTPEVTCVVVSVSHEDPEVKFNWYVDGVEVHNAKTKPREEQYNSTYRVVSVLTVLHQDWLNGKEYKCKVSNKALPAPIEKTISKAKGQPREPQVYTLPPSREEMTKNQVSLWCLVKGFYPSDIAVEWESNGQPENNYKTTPPVLDSDGSFFLYSKLTVDKSRWQQGNVFSCSVMHEALHNHYTQKSLSLSPGK heavy 2: EVQLLESGGGLVQPGGSLRLSCAVSGIDLSNNAISWVRQAPGKGLEYVGVIGNTGDTYYADSAKGRFTISRDSSKTTLYLQMNSLRAEDTAVYFCVRGPPSYSSSVKNIWGQGTLVTVSSASTKGPSVFPLAPSSKSTSGGTAALGCLVKDYFPEPVTVSWNSGALTSGVHTFPAVLQSSGLYSLSSVVTVPSSSLGTQTYICNVNHKPSNTKVDKKVEPKSCDKTHTCPPCPAPEAAGGPSVFLFPPKPKDTLMISRTPEVTCVVVSVSHEDPEVKFNWYVDGVEVHNAKTKPREEQYNSTYRVVSVLTVLHQDWLNGKEYKCKVSNKALPAPIEKTISKAKGQPREPQVYTLPPSREEMTKNQVSLSCAVKGFYPSDIAVEWESNGQPENNYKTTPPVLDSDGSFFLVSKLTVDKSRWQQGNVFSCSVMHEALHNRFTQKSLSLSPGK light: DIQMTQSPSSVSASVGDRVTITCQSSQSVYNNNWLSWLQQKPGKAPKRLIYDASKLESGVPSRFSGSGSGTDFTLTISSVQPEDAATYYCAGGFTGNVYTFGGGTKVEIKRTVAAPSVFIFPPSDEQLKSGTASVVCLLNNFYPREAKVQWKVDNALQSGNSQESVTEQDSKDSTYSLSSTLTLSKADYEKHKVYACEVTHQGLSSPVTKSFNRGEC"
